Assay results published in patent US20030108998.

Target: purified bovine aggrecan monomers isolated from bovine nasal cartilage, P13608
Sequence (P13608 17-2364): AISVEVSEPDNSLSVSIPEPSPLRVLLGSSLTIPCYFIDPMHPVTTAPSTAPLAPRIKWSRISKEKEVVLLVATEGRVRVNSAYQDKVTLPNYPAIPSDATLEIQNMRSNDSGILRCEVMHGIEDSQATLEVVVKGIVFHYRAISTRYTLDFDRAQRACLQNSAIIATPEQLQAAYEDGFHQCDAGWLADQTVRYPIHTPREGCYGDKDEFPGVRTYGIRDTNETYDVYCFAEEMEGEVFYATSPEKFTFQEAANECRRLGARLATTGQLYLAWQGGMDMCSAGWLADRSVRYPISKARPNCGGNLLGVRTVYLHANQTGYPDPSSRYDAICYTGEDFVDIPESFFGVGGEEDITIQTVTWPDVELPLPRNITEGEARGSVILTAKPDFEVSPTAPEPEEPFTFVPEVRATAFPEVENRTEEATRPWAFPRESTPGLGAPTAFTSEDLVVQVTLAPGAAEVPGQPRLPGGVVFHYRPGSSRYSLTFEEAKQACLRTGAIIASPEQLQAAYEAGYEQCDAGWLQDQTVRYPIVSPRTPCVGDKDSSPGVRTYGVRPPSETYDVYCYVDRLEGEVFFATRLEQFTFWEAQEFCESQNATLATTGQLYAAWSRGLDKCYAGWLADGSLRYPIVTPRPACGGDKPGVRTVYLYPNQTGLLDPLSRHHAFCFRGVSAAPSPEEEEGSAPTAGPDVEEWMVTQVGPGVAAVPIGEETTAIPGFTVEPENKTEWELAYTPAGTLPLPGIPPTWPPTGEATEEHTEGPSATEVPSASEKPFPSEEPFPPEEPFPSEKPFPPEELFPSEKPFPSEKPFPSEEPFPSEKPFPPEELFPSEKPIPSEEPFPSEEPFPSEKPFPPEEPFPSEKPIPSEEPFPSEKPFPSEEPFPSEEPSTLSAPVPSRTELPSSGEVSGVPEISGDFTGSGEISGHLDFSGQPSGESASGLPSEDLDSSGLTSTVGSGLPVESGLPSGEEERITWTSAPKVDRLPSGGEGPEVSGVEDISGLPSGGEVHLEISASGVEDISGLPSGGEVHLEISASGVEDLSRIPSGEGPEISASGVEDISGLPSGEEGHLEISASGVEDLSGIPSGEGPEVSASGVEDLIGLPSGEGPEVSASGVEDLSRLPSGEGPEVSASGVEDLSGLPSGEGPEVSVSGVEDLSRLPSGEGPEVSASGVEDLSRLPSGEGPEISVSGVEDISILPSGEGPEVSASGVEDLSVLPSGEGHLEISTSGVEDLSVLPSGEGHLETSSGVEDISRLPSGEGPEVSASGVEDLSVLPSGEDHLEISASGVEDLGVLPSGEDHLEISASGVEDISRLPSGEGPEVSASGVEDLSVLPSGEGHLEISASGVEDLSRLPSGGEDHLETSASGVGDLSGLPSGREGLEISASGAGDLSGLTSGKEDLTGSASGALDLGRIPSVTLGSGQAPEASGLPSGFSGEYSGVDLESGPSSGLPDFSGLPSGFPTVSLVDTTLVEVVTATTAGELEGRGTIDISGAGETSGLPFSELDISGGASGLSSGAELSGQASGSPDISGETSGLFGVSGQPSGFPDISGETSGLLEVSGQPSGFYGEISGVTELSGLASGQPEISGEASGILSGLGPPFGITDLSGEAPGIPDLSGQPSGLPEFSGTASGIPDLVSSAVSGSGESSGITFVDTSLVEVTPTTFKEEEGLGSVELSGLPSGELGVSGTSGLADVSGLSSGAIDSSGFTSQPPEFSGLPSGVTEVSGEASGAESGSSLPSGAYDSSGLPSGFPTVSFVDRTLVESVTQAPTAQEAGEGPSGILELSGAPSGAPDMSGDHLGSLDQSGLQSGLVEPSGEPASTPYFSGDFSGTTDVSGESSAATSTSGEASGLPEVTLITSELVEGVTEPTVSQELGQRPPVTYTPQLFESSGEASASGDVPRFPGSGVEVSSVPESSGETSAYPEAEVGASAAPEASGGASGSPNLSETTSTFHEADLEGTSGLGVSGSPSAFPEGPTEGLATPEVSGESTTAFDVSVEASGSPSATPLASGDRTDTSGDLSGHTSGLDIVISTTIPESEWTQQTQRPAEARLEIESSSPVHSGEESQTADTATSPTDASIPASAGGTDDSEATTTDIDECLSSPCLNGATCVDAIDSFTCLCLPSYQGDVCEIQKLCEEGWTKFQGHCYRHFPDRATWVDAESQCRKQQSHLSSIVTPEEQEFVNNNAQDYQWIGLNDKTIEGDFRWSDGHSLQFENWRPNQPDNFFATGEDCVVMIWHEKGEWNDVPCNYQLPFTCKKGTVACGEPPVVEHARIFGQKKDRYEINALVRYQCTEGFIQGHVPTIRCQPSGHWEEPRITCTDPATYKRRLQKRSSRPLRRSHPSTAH

B1: ADMP-1 (aggrecan degrading metallo protease 1), 67 kDa active form purified from conditioned media of IL-1-stimulated bovine nasal cartilage (protein)
chain: FASLSRFVETLVVADDKMAAFHGAGLKRYLLTVMAAAAKAFKHPSIRNPVSLVVTRLVVLGPGEEGPQVGPSAAQTLRSFCAWQRGLNTPDDADPGHFDTAILFTRQDLCGVSTCDTLGMADVGTVCDPARSCAIVEDDGLQSAFTAAHELGHVFSMLHDNSKQCTGLNGPESTSRHVMAPVMAHVDPEEPWSPCSARFITDFLDNGFGHCLLDKPEAPLHLPVTFPGKDYDADRQCQLTFGPDSRHCPQLPPPCAALWCSGHLNGHAMCQTKHSPWADGTPCGPAQACMGGRCLHVDQLQAFNVPQAGGWGPWGSWGDCSRSCGGGVQFSSRDCTRPVPRNGGKYCEGRRTRFRSCNTQDCPTGSALTFREEQCAAYNHRTDLFKNFPGPMDWVPRYTGVAPRDQCKLTCQTRALGYYYVLDPRVADGTPCSPDSSSVCVQGRCIHAGCDRVIGSKKKFDKCMVCGGDGSSCSKQSGSFKKFRYGYNNVVTIPAGATHILVRQQGSPSVRSLYLALKLPDGSYALNGEYTLIPSPTDVVLPGAVSLRYSGATAASETLSGHGPLAEPLTLQVLVAGNPQNARLRYSFFVPRPRPVPSTPRPTPQDWLRRKSQILEILRRRSWAGRK
In the case of B1, the “ADMP activity (incubation with aggrecan substrate, products monitored with the BC-3 antibody)” value is reported as “The region of the gel containing the 67 kDa ADMP-1 protein exhibited activity while that of the control portion of the gel did not” and the “cleavage of aggrecan at Glu373-Ala374, detected as BC-3-reactive fragments (Western blot)” value is reported as “Incubation of the GuHCl-eluted ADMP-1 with isolated bovine aggrecan produced a pattern of BC-3-reactive fragments similar to that produced upon cleavage of cartilage aggrecan by endogenous aggrecanase”.
